Measured values: patent US20130209454A1
Positions count from the first letter of the chain named. Numbers in names are those of the source.

Key:
Assay in all cases: cell-based or functional assay
[1] = target: HIV-1 Env of strain 7030102001E5(Rev) (HIV-1)
[2] = target: HIV-1 Env of strain HIV-0013095-2.11 (HIV-1)
[3] = target: HIV-1 Env of strain 1012_11_TC21_3257 (HIV-1)
[4] = target: HIV-1 Env of strain 235-47 (HIV-1)
[5] = target: HIV-1 Env of strain BJOX010000.06.2 (HIV-1)
[6] = target: HIV-1 Env of strain A07412M1.vrc12 (HIV-1)
[7] = target: HIV-1 Env of strain BJOX009000.02.4 (HIV-1)
[8] = target: HIV-1 Env of strain C4118.c09 (HIV-1)
[9] = target: HIV-1 Env of strain 191821_E6_1 (HIV-1)
[10] = target: HIV-1 Env of strain MS208.A1 (HIV-1)
[11] = target: HIV-1 Env of strain HIV-001428-2.42 (HIV-1)
[12] = target: Env of HIV-1 strain 1012_11_TC21_3257 (HIV-1)
[13] = target: Env of HIV-1 strain CAP210.2.00.E8 (HIV-1)
[14] = target: Env of HIV-1 strain Ce0682_E4 (HIV-1)
[15] = target: Env of HIV-1 strain R2184.c04 (HIV-1)
[16] = target: Env of HIV-1 strain C2101.c01 (HIV-1)
[17] = target: Env of HIV-1 strain 211-9 (HIV-1)
[18] = target: Env of HIV-1 strain ZM249M.PL1 (HIV-1)
[19] = target: Env of HIV-1 strain 7030102001E5(Rev-) (HIV-1)
[20] = target: Env of HIV-1 strain 62357_14_D3_4589 (HIV-1)
[21] = target: Env of HIV-1 strain P1981_C5_3 (HIV-1)
[22] = target: Env of HIV-1 strain 0260.v5.c36 (HIV-1)
[23] = target: Env of HIV-1 strain CNE19 (HIV-1)
[24] = target: Env of HIV-1 strain 246F C1G (HIV-1)
[25] = target: Env of HIV-1 strain HIV-16845-2.22 (HIV-1)
[26] = target: Env of HIV-1 strain ZM135M.PL10a (HIV-1)
[27] = target: Env of HIV-1 strain 6480.v4.c25 (HIV-1)
[28] = target: Env of HIV-1 strain QH0692.42 (HIV-1)
[29] = target: Env of HIV-1 strain Ce2060_G9 (HIV-1)
[30] = target: Env of HIV-1 strain SC05_8C11_2344 (HIV-1)
[31] = target: Env of HIV-1 strain 231966.c02 (HIV-1)
[32] = target: Env of HIV-1 strain 191955_A11 (HIV-1)
[33] = target: Env of HIV-1 strain 3016.v5.c45 (HIV-1)
[34] = target: Env of HIV-1 strain 0815.v3.c3 (HIV-1)
[35] = target: Env of HIV-1 strain REJO4541.67 (HIV-1)
[36] = target: Env of HIV-1 strain 263-8 (HIV-1)
[37] = target: Env of HIV-1 strain CNE52 (HIV-1)
[38] = target: Env of HIV-1 strain CNE20 (HIV-1)
[39] = target: Env of HIV-1 strain Ce2010_F5 (HIV-1)
[40] = target: Env of HIV-1 strain Du156.12 (HIV-1)
[41] = target: Env of HIV-1 strain R1166.c01 (HIV-1)
[42] = target: Env of HIV-1 strain HIV-16055-2.3 (HIV-1)
[43] = target: Env of HIV-1 strain C3347.c11 (HIV-1)
[44] = target: Env of HIV-1 strain 249M B10 (HIV-1)
[45] = target: Env of HIV-1 strain ZM247v1(Rev-) (HIV-1)
[46] = target: Env of HIV-1 strain CNE30 (HIV-1)
[47] = target: Env of HIV-1 strain 1006_11_C3_1601 (HIV-1)
[48] = target: Env of HIV-1 strain Q769.d22 (HIV-1)
[49] = target: Env of HIV-1 strain 9004SS_A3_4 (HIV-1)
[50] = target: Env of HIV-1 strain C4118.c09 (HIV-1)

B1: NIH45-46^G54W(HC), S28Y(LC) (antibody, V domains shown)
VH: QVRLSQSGGQMKKPGESMRLSCRASGYEFLNCPINWIRLAPGRRPEWMGWLKPRWGAVNYARKFQGRVTMTRDVYSDTAFLELRSLTSDDTAVYFCTRGKYCTARDYYNWDFEHWGRGAPVTVSS
VL: EIVLTQSPATLSLSPGETAIISCRTSQYGSLAWYQQRPGQAPRLVIYSGSTRAAGIPDRFSGSRWGADYNLSISNLESGDFGVYYCQQYEFFGQGTKVQVDI
- IC50, pseudovirus neutralization [1]: 0.038 µg/mL
- IC50, pseudovirus neutralization [2]: 2 ng/mL
- IC50, pseudovirus neutralization [3]: 1 ng/mL
- IC50, pseudovirus neutralization [4]: 1 ng/mL
- IC50, pseudovirus neutralization [5]: 1.38 µg/mL
- IC50, pseudovirus neutralization [6]: 1 ng/mL
- IC50, pseudovirus neutralization [7]: 0.14 µg/mL
- IC50, pseudovirus neutralization [8]: 0.011 µg/mL
- IC50, pseudovirus neutralization [9]: 0.05 µg/mL
- IC50, pseudovirus neutralization [10]: 0.022 µg/mL
- IC50, pseudovirus neutralization [11]: 1 ng/mL

B2: NIH45-46^G54W(HC) S28Y(LC) (antibody, V domains shown)
VH: B1 VH
VL: B1 VL
- IC80 [12]: 8 ng/mL
- IC80 [13]: 9.05 µg/mL
- IC80 [14]: 0.031 µg/mL
- IC80 [15]: 0.039 µg/mL
- IC80 [16]: 0.169 µg/mL
- IC80 [17]: 0.898 µg/mL
- IC80 [18]: 0.017 µg/mL
- IC80 [19]: 0.229 µg/mL
- IC80 [20]: 0.084 µg/mL
- IC80 [21]: 0.045 µg/mL
- IC80 [22]: 0.084 µg/mL
- IC80 [23]: 0.102 µg/mL
- IC80 [24]: 0.14 µg/mL
- IC80 [25]: 1.44 µg/mL
- IC80 [26]: 0.163 µg/mL
- IC80 [27]: 0.058 µg/mL
- IC80 [28]: 0.622 µg/mL
- IC80 [29]: 0.062 µg/mL
- IC80 [30]: 0.219 µg/mL
- IC80 [31]: 0.076 µg/mL
- IC80 [32]: 0.046 µg/mL
- IC80 [33]: 0.037 µg/mL
- IC80 [34]: 4 ng/mL
- IC80 [35]: 0.01 µg/mL
- IC80 [36]: 0.067 µg/mL
- IC80 [37]: 0.028 µg/mL
- IC80 [38]: 0.02 µg/mL
- IC80 [39]: 0.133 µg/mL
- IC80 [40]: 0.024 µg/mL
- IC80 [41]: 1.01 µg/mL
- IC80 [42]: 0.017 µg/mL
- IC80 [43]: 0.034 µg/mL
- IC80 [44]: 0.017 µg/mL
- IC80 [45]: 0.034 µg/mL
- IC80 [46]: 0.239 µg/mL
- IC80 [47]: 0.037 µg/mL
- IC80 [48]: 0.017 µg/mL
- IC80 [49]: 0.138 µg/mL
- IC80 [50]: 0.058 µg/mL

B3: NIH45-46^G54W (antibody, V domains shown)
VH: B1 VH
VL: B1 VL with Y28S
- IC80 [12]: 3 ng/mL
- IC80 [13]: > 50 µg/mL
- IC80 [14]: 0.039 µg/mL
- IC80 [15]: 0.036 µg/mL
- IC80 [16]: 0.17 µg/mL
- IC80 [17]: > 50 µg/mL
- IC80 [18]: 0.007 µg/mL
- IC80 [19]: 0.228 µg/mL
- IC80 [20]: 0.07 µg/mL
- IC80 [21]: 0.07 µg/mL
- IC80 [22]: 0.399 µg/mL
- IC80 [23]: 0.028 µg/mL
- IC80 [24]: 2.45 µg/mL
- IC80 [25]: 2.1 µg/mL
- IC80 [26]: 0.16 µg/mL
- IC80 [27]: 0.021 µg/mL
- IC80 [28]: 1.12 µg/mL
- IC80 [29]: 0.042 µg/mL
- IC50, pseudovirus neutralization [1]: 0.042 µg/mL
- IC80 [30]: 0.2 µg/mL
- IC80 [31]: 0.11 µg/mL
- IC80 [32]: 0.076 µg/mL
- IC50, pseudovirus neutralization [2]: 5 ng/mL
- IC50, pseudovirus neutralization [3]: 1 ng/mL
- IC80 [33]: 15.4 µg/mL
- IC80 [34]: 3 ng/mL
- IC80 [35]: 0.013 µg/mL
- IC50, pseudovirus neutralization [4]: 1 ng/mL
- IC80 [36]: 0.025 µg/mL
- IC80 [37]: 0.052 µg/mL
- IC80 [38]: 0.48 µg/mL
- IC80 [39]: 0.187 µg/mL
- IC80 [40]: 0.005 µg/mL
- IC80 [41]: 0.51 µg/mL
- IC80 [42]: 0.024 µg/mL
- IC80 [43]: 0.028 µg/mL
- IC80 [44]: 0.019 µg/mL
- IC80 [45]: 2.6 µg/mL
- IC50, pseudovirus neutralization [5]: 0.769 µg/mL
- IC50, pseudovirus neutralization [6]: 1 ng/mL
- IC80 [46]: 0.196 µg/mL
- IC50, pseudovirus neutralization [7]: 0.132 µg/mL
- IC50, pseudovirus neutralization [8]: 0.01 µg/mL
- IC80 [47]: 0.008 µg/mL
- IC50, pseudovirus neutralization [9]: 0.013 µg/mL
- IC80 [48]: 0.009 µg/mL
- IC50, pseudovirus neutralization [10]: 0.031 µg/mL
- IC80 [49]: 0.28 µg/mL
- IC50, pseudovirus neutralization [11]: 1 ng/mL
- IC80 [50]: 0.087 µg/mL
